Consider five molecules from PMC9795039, “Kindlin2 enables EphB/ephrinB bi-directional signaling to support vascular development” (Life Science Alliance, 2022).

T1: his-tagged human full-length kindlin2 (human, UniProt Q96AC1 1-680)
T1 construct: human full-length kindlin2 in gWIZ vector; also called purified kindlin2; recombinant kindlin2; source: Expi293F cells, purified
T1 sequence (looked up): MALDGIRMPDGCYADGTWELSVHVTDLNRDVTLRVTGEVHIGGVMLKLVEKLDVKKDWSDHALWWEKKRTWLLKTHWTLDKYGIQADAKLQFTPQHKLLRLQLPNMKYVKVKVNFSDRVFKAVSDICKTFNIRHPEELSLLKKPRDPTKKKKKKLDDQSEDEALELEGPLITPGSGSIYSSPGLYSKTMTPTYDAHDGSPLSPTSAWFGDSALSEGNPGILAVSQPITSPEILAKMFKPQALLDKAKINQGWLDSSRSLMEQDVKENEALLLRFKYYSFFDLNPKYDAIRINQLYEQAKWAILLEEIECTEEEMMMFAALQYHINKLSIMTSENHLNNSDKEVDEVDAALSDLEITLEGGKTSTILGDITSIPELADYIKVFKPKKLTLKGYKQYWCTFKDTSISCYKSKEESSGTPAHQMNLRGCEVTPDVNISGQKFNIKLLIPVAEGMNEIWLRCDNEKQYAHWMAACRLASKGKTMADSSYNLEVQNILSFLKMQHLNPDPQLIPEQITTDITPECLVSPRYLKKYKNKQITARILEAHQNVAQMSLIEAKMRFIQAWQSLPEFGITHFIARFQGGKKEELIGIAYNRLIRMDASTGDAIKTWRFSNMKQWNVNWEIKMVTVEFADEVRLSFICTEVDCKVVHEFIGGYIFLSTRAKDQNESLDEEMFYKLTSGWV

B1: his/Avi-tagged cytoplasmic tail of ephrinB2 WT (domain or fragment, UniProt P52799 251-333, looked up)
chain: KYRRRHRKHSPQHTTTLSLSTLATPKRSGNNNGSEPSDIIIPLRTADSVFCPHYEKVSGDYGHPVYIVQEMPPQSPANIYYKV
modifications: biotinylated
notes: ephrinB2 cytoplasmic tail; Vector (his/Avi-tagged in pET15) and purification after Pfaff et al, 1998; The forward primer printed for the 4A construct reads KYRRR after the HindIII site, which may mark the start of the tail; also called ephrinB2 WT tail; ephrinB2 cytoplasmic tail; source: Escherichia coli (DE3), purified
B2: his/Avi-tagged cytoplasmic tail of ephrinB2 N328A (domain or fragment, UniProt P52799 251-333, looked up)
chain: KYRRRHRKHSPQHTTTLSLSTLATPKRSGNNNGSEPSDIIIPLRTADSVFCPHYEKVSGDYGHPVYIVQEMPPQSPAAIYYKV
modifications: biotinylated
notes: ephrinB2 cytoplasmic tail with N328A; source: Escherichia coli (DE3), purified
B3: his/Avi-tagged cytoplasmic tail of ephrinB2 2A (domain or fragment, UniProt P52799 251-333, looked up)
chain: KYRRRHRKHSPQHTTTLSLSTLATPKRSGNNNGSEPSDIIIPLRTADSVFCPHYEKVSGDYGHPVYIVQEMPPQSPAAIYAKV
modifications: biotinylated
notes: ephrinB2 cytoplasmic tail with N328A and Y331A; also called double point mutation (N328A and Y331A); source: Escherichia coli (DE3), purified
B4: his/Avi-tagged cytoplasmic tail of ephrinB2 S325A (domain or fragment, UniProt P52799 251-333, looked up)
chain: KYRRRHRKHSPQHTTTLSLSTLATPKRSGNNNGSEPSDIIIPLRTADSVFCPHYEKVSGDYGHPVYIVQEMPPQAPANIYYKV
modifications: biotinylated
notes: ephrinB2 cytoplasmic tail with S325A; source: Escherichia coli (DE3), purified
B5: his/Avi-tagged cytoplasmic tail of ephrinB2 Y331A (domain or fragment, UniProt P52799 251-333, looked up)
chain: KYRRRHRKHSPQHTTTLSLSTLATPKRSGNNNGSEPSDIIIPLRTADSVFCPHYEKVSGDYGHPVYIVQEMPPQSPANIYAKV
modifications: biotinylated
notes: ephrinB2 cytoplasmic tail with Y331A; source: Escherichia coli (DE3), purified

This experiment deals with T1, his-tagged human full-length kindlin2. The experiment can be described thus: pull-down; in vitro binding assay: purified kindlin2 mixed with purified cytoplasmic tails immobilised on NeutrAvidin beads; Western blot with anti-kindlin2 antibody. The following applies: both partners purified. On the technique in general: A western blot detects proteins with antibodies after separation by electrophoresis.
B1: the binding result is reported as “binds”.
Then B2, with “binds”; and B3, with “binds”; and B4, with “binds”.
Then B5, with “binds”.
